Experimental data reported in the nanobody polyreactivity screen of Harvey et al. (2022).

assay: yeast display, Sf9 membrane polyspecificity reagent, FACS + sequencing; frameworks hold sequencing errors
Summary of the method: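 Nanobodies from a synthetic yeast display library (Saccharomyces cerevisiae BJ5465), induced 36–48 hours with galactose, were stained 1 hour at 4 °C with 10% biotinylated, detergent-solubilized Sf9 membrane reagent, enriched on streptavidin microbeads, then FACS-sorted. Anti-HA (expression) and streptavidin (reagent binding) fluorescence set low and high (top ~1%) gates. Polyreactivity labels come from the gate of origin. Genes were colony-PCR amplified, MiSeq 2 × 250 sequenced and filtered by CDR length.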

| Sequence | polyreactivity (PSR sort gate) |
| --- | --- |
| QVQLVDSGGGLVQAGGSLRLSCAASGSTFYYNAMGWYRQAPGKERELVARISRSGGSTYADSVKGRFTISRDNAKNTFYLQMNSLKPEDTAVYYCNADAYGTPEFTSYAVCYDYWGQGTQVTVSS | low polyreactivity |
| QVQLVDSGGGLVQAGGSLRLSCAASGSTFYYNAMGWYRQAPGKERELVARISRSGGSTYADSVKGRFTISRDNAKNTVYLQMNSMKPEDTAVYYCNAVAYGTPEFTSYAVRYDYWGQGTQVTVSS | low polyreactivity |
| QVQLVDSGGGLVQAGGSLRLSCAASGSTRRGYAMGWYRQAPGKERELVASISRRGGSTYYADSVKGRFTISRDNAKNTVYLQMKSLKTEVTAVYYCAATGRRGYGYGYWGQGTQVTVSS | high polyreactivity |
| QVQLVDSGGGLVQAGGSLRLSCAASGTTFYSYAMGWYRQAPGKERELVAAISSSGDSTYYADSVKGRFTISRDNAKNTVYLQMNSLKPEDTAVYYCAARKGELWFPQGGYNYWGQGTQVTVLS | low polyreactivity |
| QVQLVDSGGGLVQAGGSLRLSCAASGYTFEAYAMGWYRQAPGKERELVAAINYSGGSTYADSVKGRFTISRDNAKNTVYLQMNSLKPEDTAVYYCATRLYGYWPYGFDYWGQGTQVTVSS | low polyreactivity |
| QVQLVDSGGGLVQAGGSLRLSCAAYGSIFKYYCMGWYRQAPGKERELVATISKRGGSTYYADSVKGRFTISRDNAKNSVYLQMNSLKPEDTAVYYCAKDSPALRPLTWQQLYDFWGQGTQVTVSS | high polyreactivity |
| QVQLVDSGGGLVQAGGSLRLSCAAYGSNLYYAMGWYIQAPGKERELVATITRGGSTYYADSVKGRFTISRDNAKNTVYLQMNSLKPEDTAVYYCAARRAVRVGYYWHDISSYDYWGQGTQVTVSS | low polyreactivity |
| QVQLVDSGGGLVQAGGSLRLSCAAYGSTDKPNAMGWYRQAPGKQRELVAANSGSGGSTYYADTVKGRFTISRDNAKNTVYLQMNSLKPEDTAVYYCAAKRTGNGYPRSGYSRYEYWGQGTQVTVSS | high polyreactivity |
| QVQLVDSGGGLVQAGGSLRLSCADSGFTFSWNVMGRYRQAPGKEREYVAAISTSYGGRYYADSVKGRFTISRDNAKNTVDLQMNSLKPEDTAVYYCNDDIVGFQWGYDYWGQGTQVTVSA | low polyreactivity |
| QVQLVDSGGGLVQAGGSLRLSCPASGSTFQRYAMGWYRQAPGKERELVAAISSSGVRTYYADSVKGRFTISRDNAKNTVYLQMNSLKPEDTAVYYCATGYIFRYRQSAYDYWGQGTQVTVSS | high polyreactivity |
| QVQLVDSGGGLVQAGGSLRLSCSASGIIIKWYTMVWYRQAPGKEREFVAAISYGGGSTSYADSVKGRFTISRDNAKNTVYLQMNSLKPEDTAVYYCAVVWQGAYSRTNYYYWGQGTQVTVSS | low polyreactivity |
| QVQLVDSGGGLVQAGGSLRLSCSASGSTFSVYAMGWYRQAPGKERELVAAITSGGSTNYADSVKGRFTISRDNAKNTVYLQMNSLKPEDTAVFYCNAYYVLIGYQPHWGYYWGQGTQVTVSS | low polyreactivity |
| QVQLVDSGGGLVQAGGSLRLSCSASGYNFIGYAMGWYRQAPGKERELVATITSGGSTNYADSVKGRFTISRDNAKNTVYLQMNSLNPEDTAVYYCAAGRGRYFYSWRYLYAIFDYWGQGTQVTVSS | low polyreactivity |
| QVQLVDSGGGLVQAGGSLRLTCAASGRIFYYNPMGWNRQAPGIVRELVDAINMISGSTYYADSVKGRFTISRDNAKNSVYFQMNSLKPEDTAVYYCAAQGVDTRIFFSFGFDYWGQGTQVNVSS | high polyreactivity |
| QVQLVDSGGGLVQAGGSLRVSCAASGNTFVTNAMGWSRQAPGKERELDAAITASVTSTYYADSVKGRFTISRDNAKITVYLQLNSLKPEDPAVYYCAAKTYSRKRVRMDYWGQGTQVTVSS | high polyreactivity |
| QVQLVDSGGGLVQAGGSLRVSCAASGSILPLNAMGWYRQGPGKERELVADISWSGGDTYYADSVKGRFTISRDNAKNTVYLQMNSLKPEDTSVYYCAADLHTELYKMDYWGQGTQVTVSS | low polyreactivity |
| QVQLVDSGGGLVQAGGSRRVSCAASAFTFLWNAMGWYRQAPGKEREMVAAINGNSGNTYYADSVKGRFTLSVDNAKNTVYLQMNSMKAEDTAVYYCAKQGNNIPCYRPYGDYYYWGQGTQVTVSS | low polyreactivity |
| QVQLVDSGGGLVQAGGTLRLSCAASGRTIYRNDMGWYRQAPGQERELVAAITSSGGTTYADSVKGRFTISRDNAKNTGYLQMNSLKPEDTAVYYCAAVYAYPNIYDYWGQGTQVTVSS | low polyreactivity |
| QVQLVDSGGGLVQAGVSLRLSCAASGFTFVFYAMGWYRQAPGKERELVAAISGRGGSTYYADSVKGRFTISRDNAKNTVYLQMNSLKPEDTAVYYCNALYVYRSVANFDYWGQGTQVTVSS | high polyreactivity |
| QVQLVDSGGGLVQAVGSLRLSCAASGGIFVPNAMGWYRQAHGKVRELVAAIYYSGGRTYYADSVKGSFTISRDNAKNTVYLQMNRLKPEDTAVYYCAAEYWFVFHHYNYFGQGTQVTVSS | high polyreactivity |

| Sequence | polyreactivity (PSR sort gate) |
| --- | --- |
| QVQLVDSGGGLVQAVGSLRLSCAASGITFDEYAMGWYRQAPGKERELVAAISVSGGDTYYADSVKGRFTISRDNAKNNVYLQMNSLKPEDTAVYYCNARWGTPYYIQDFDYWGLGTQVTVSS | low polyreactivity |
| QVQLVDSGGGVVQAGGSLRLSCPASGIILRRYAMGWYRQAQGKERELVARISYRGGRTNYADSVKGRFTISRDNAKNTVYLQMNSLKPEDTAVYYCAAVAWDYHEGTAYNYWGQGTQVTVSS | high polyreactivity |
| QVQLVDSGGGVVQEGGSLRLSCAASGIISLFNVMGWYRQAPGKERELVASITGRGGSTFYADSVKGRFTISRDNAKNTVYLQMNSLQPEESGVYYCATDTGDTYPVNGLYDYWGHGTQVTVSS | low polyreactivity |
| QVQLVDSGGRLVQAGGSLRLSCAASGFIFGTNAMGWYRQAPGKERELVASISSTGGSTYYADSVKGRCTISRDNAKNTVYLQMNILKPEETAVYYCAADPYPEYIRYLPGVDYSGQGTQVTVSS | low polyreactivity |
| QVQLVDSGGVLVQAGGSLRLICAASGNTFAYYTLGWYRQAPGKEMELVAAIDYSGGSTYYADSVKGRFTISRDNAKNTVYLQMNSLKPEDTAVYYCASDYRWHFSESLGWFYEYGYWGQGTQVTVSS | low polyreactivity |
| QVQLVDSRGGLVQAGGSLRLSCAASGIIFGYYAMGWYRQAPGKERELVAAITWSGGSTYYADSVKGSFTISRDNAKNTVYLQMNSLKPEDTAVYYCAASAYVQPYDYWGQGTQVTVSS | high polyreactivity |
| QVQLVDSRGGLVQAGGSLRLSCAASGSTYLRNVMGSYRQAPGKERELVAAISSRGGSTHYADSVKGRFTISRDNAKNTVYLQMNSMKPEDTAVYYSNAERTAAQYVRAAYDFWGEGTQVTVSS | low polyreactivity |
| QVQLVDSRRGLVQAGGSLRLSCAASGRIFGYNAMGWYREAPGKVRELVAAISSGGGTNYADSVKGRFTISRDNAKNPVYLQMHSLKPEDTAVYYCAVRRRRYHTYYRGYDYWGQGTQVTVSS | low polyreactivity |
| QVQLVDSVGGLVQAGGSLPLICAASGSTFGNYAKGWYRQAPGKERELVAAINSGDSTSYADSVKGRFTISRDNANNTVYLHMNSLKPEDTAVYYCSVRPRRNQYGYWGQGTQLTVSS | low polyreactivity |
| QVQLVDSVGGLVQAGGSLRLSCAASGSTFVYNTMGWYRQEPGKEREMVAAISYRGSTYYADSVKGRFTISRENAKNTVFLQMNSLKPEDNAVYYCNAPRRQYEYDYWGQGTQVTVSS | high polyreactivity |
| QVQLVDTGGGLVQAGGSLRLSCAASGITFYFYVMGWYRQAPGKERELVADISTSDDSTYYADSVKGRFTISRDNAKNTVYLQMNSLKPEDTAVYYCATATRTYSAWYEYVYWGQGTQVTVSS | low polyreactivity |
| QVQLVEAGGGLDQPGGSLRLSCAASGSTFYVNTRRWYIQAPGQELELVAAISSTGSSTYFADSVKGRFTISRDNAKNTVYLQMNSLKPEDTAVYYCAAESYRWWYLYDYYYWGQGTQVTVSS | high polyreactivity |
| QVQLVEAGGGLVQAGGSLRLSCAASAFTFSPTAMGWYRQAPGKERELGAAIDWSGDRTYYADSVKGRFTISRAHAKNTVYLQMNSLKPEDTGVYYCNVVRRSPGDYSYYYWGQGSQVTVSS | low polyreactivity |
| QVQLVEAGGGLVQAGGSLRLSCAASGFIFPSYVRGWYSQAPGKERELVATISRSGGSTYYADSVKGRFTISRDNAKNTGYLQMNSLKPEDTAVYYCATRRRGPYSPYSPYDYWGQGTQVTVSS | high polyreactivity |
| QVQLVEAGGGLVQAGGSLRLSCAASGFILENYAMGWNRQAPGKERELVAAISGSGGTTYYADSVKGRFTISRDNAKNTVYLQMNSLKPEDTAVYYCNRDRLLRQYDYWGQGTQVTVSS | high polyreactivity |
| QVQLVEAGGGLVQAGGSLRLSCAASGGTFNSNAMGWYRQAPGKERELGASITWRGGTYYADSVKGRFTISRDNAKNTVYLQMNSLKPEDTAVYYCAARGTIPGIHWIYYYWGQGTQVTVSS | high polyreactivity |
| QVQLVEAGGGLVQAGGSLRLSCAASGIIFYLYTMGWYRPAPGKERELVAAISSSDGSTYYADSVKGRFTISRDNAKNTVYLQMNSLKPEDTAVYYCAAEYRGYLDDYYYWGQGTQVTVSS | high polyreactivity |
| QVQLVEAGGGLVQAGGSLRLSCAASGITLYLYVMGWYRQAPGKEREFVAAIRWSGGSTYYADSVKGRFTISRDNAKNTVYLQMNSLKPEDTAVYYCNAEVYCYYSARRPGYEYWGQGTQVTVSS | low polyreactivity |
| QVQLVEAGGGLVQAGGSLRLSCAASGSIFGYYAMGWYRQAPGKERELVAAISYRGGSTYYADSVKGRFTISRDNAKNTVYLQMNSLKPEDTAVYYCNAGGRRRIFAHSSTGDYWGQGTQVTVSS | high polyreactivity |
| QVQLVEAGGGLVQAGGSLRLSCAASGSIFSHNAMGWYRQAPGKERELVAAISVSGGTTYYADSVKGRFTISRDNAKNTVYLQMNSLKPEDTAVYYCAAKRFQGVGYLGQGTQVTVSS | high polyreactivity |
